Results: the supplement of paper PMC9233669
This sample holds only a part of the variants without activity.

Legend:
[1] = tested on: biotinyl-Ile-oxazolone; experiment: self-aminoacylation, catalytic enhancement (BIO) (fold over background); higher = more active; k-Seq, kA / k0A0; sequences stand for … in GGGAAUGGAUCCACAUCUACGAAUUC…UUCACUGCAGACUUGACGAAGCUG
In short: (§1)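 Mutagenized RNA pools (0.43 μM; 21-nt variable region) were treated with 2–1250 μM of each biotinyl-aminoacyl-oxazolone. Conditions were 50 μL HEPES/NaCl/KCl/MgCl2/CaCl2 buffer, 5% acetonitrile, pH 6.9–7.0, room temperature, 90 minutes. Catalytic enhancement, the median kA relative to the uncatalyzed rate, was derived from streptavidin capture, qPCR and Illumina sequencing.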

[2] = tested on: biotinyl-Phe-oxazolone; experiment: self-aminoacylation, catalytic enhancement (BFO) (fold over background); higher = more active; k-Seq, kA / k0A0; sequences stand for … in GGGAAUGGAUCCACAUCUACGAAUUC…UUCACUGCAGACUUGACGAAGCUG
In short: as §1

[3] = tested on: biotinyl-Trp-oxazolone; experiment: self-aminoacylation, catalytic enhancement (BWO) (fold over background); higher = more active; k-Seq, kA / k0A0; sequences stand for … in GGGAAUGGAUCCACAUCUACGAAUUC…UUCACUGCAGACUUGACGAAGCUG
In short: as §1

[4] = tested on: biotinyl-Val-oxazolone; experiment: self-aminoacylation, catalytic enhancement (BVO) (fold over background); higher = more active; k-Seq, kA / k0A0; sequences stand for … in GGGAAUGGAUCCACAUCUACGAAUUC…UUCACUGCAGACUUGACGAAGCUG
In short: as §1

[5] = tested on: biotinyl-Leu-oxazolone; experiment: self-aminoacylation, catalytic enhancement (BLO) (fold over background); higher = more active; k-Seq, kA / k0A0; sequences stand for … in GGGAAUGGAUCCACAUCUACGAAUUC…UUCACUGCAGACUUGACGAAGCUG
In short: as §1

[6] = tested on: biotinyl-Met-oxazolone; experiment: self-aminoacylation, catalytic enhancement (BMO) (fold over background); higher = more active; k-Seq, kA / k0A0; sequences stand for … in GGGAAUGGAUCCACAUCUACGAAUUC…UUCACUGCAGACUUGACGAAGCUG
In short: as §1

| Sequence | self-aminoacylation [1] | self-aminoacylation [2] | self-aminoacylation [3] | self-aminoacylation [4] | self-aminoacylation [5] | self-aminoacylation [6] |
| --- | --- | --- | --- | --- | --- | --- |
| AUUUCCCUGGUCAUCGAUUGA [Fam2.1 aminoacylation ribozyme variant] | 1.07 | 0.598 | 0.985 | 1 | 1.06 | 0.986 |
| AUACACCUAGGGCAUCGGGUG [Fam2.2 aminoacylation ribozyme variant] | 2.99 | 17.1 | 4.14 | 2.43 | 3.71 | 2.83 |
| AAGUUUGCCAAUAGUCGGAAG [Fam3.1 aminoacylation ribozyme variant] | 1.14 | 1.28 | 0.79 | 0.968 | 0.941 | 0.781 |
| ACUCACCUAGAUCAUCGGGUG [Fam2.2 aminoacylation ribozyme variant] | 2.9 | 26.9 | 5.49 | 3.13 | 3.38 | 2.99 |
| CUACAUCAAACAAUCGGUCCG [Fam1A.1 aminoacylation ribozyme variant] | 0.838 | 0.932 | 0.83 | 0.872 | 0.805 | 1.1 |
| CUACUACAAACAAUCGGUCUG [Fam1A.1 aminoacylation ribozyme variant] | 0.694 | 1.24 | 0.73 | 0.743 | 0.608 | 0.634 |
| AUUCACUUAGGUCAUCGGGAG [Fam2.2 aminoacylation ribozyme variant] | 1.02 | 0.746 | 0.745 | 1.11 | 1.22 | 1.1 |
| CCGCACUUCAAGCAAUCGGCC [Fam1B.1 aminoacylation ribozyme variant] | 1.97 | 6.69 | 6.53 | 3.21 | 1.61 | 1.71 |
| CUACUUCAAACGAUCGGUCUA [Fam1A.1 aminoacylation ribozyme variant] | 0.757 | 0.678 | 0.594 | 0.731 | 0.615 | 0.744 |
| AUUACCCUCGUCAGCGAGUGA [Fam2.1 aminoacylation ribozyme variant] | 2.39 | 9.66 | 4.57 | 2.58 | 4.33 | 3.5 |
| AUUCACCUAGGGCAUCGGGUA [Fam2.2 aminoacylation ribozyme variant] | 2.89 | 2.02 | 3.3 | 3.46 | 2.34 | 3.25 |
| CCACACUUCAACCUAUCGGUC [Fam1B.1 aminoacylation ribozyme variant] | 1.02 | 1.18 | 0.993 | 1.34 | 0.995 | 0.87 |
| CUUCUUCAAACAAUCGGUCUC [Fam1A.1 aminoacylation ribozyme variant] | 0.814 | 28.6 | 13.6 | 0.874 | 1.08 | 0.773 |
| CUACUUCAAACAUUAGGUCUG [Fam1A.1 aminoacylation ribozyme variant] | 0.813 | 0.696 | 0.535 | 0.747 | 0.6 | 0.617 |
| AUUCACCUGCGUCAUCGGGUG [Fam2.2 aminoacylation ribozyme variant] | 5.17 | 49.4 | 7.09 | 5.41 | 10.6 | 7.79 |
| AUUCACCUAGGUCUACGGGUG [Fam2.2 aminoacylation ribozyme variant] | 3.16 | 27.6 | 4.07 | 3.11 | 4.92 | 4.62 |
| AUUCGCCUACGUCAUCGGGUG [Fam2.2 aminoacylation ribozyme variant] | 3.15 | 44.1 | 4.12 | 3.86 | 7.11 | 5.54 |
| AUUCACCUAAGUCAUCGGGAG [Fam2.2 aminoacylation ribozyme variant] | 1.07 | 0.578 | 1.14 | 1.49 | 1.81 | 1.2 |
| CCACAUUUCAAGCAAUCGGCC [Fam1B.1 aminoacylation ribozyme variant] | 3.63 | 3.98 | 4.96 | 3.56 | 3.19 | 4.62 |
| AUUACCCUAGUUAUCGAGUGA [Fam2.1 aminoacylation ribozyme variant] | 3.77 | 50.7 | 11.1 | 3.83 | 8.3 | 8.68 |
| CUACUUCAAACAAUCGCUCCG [Fam1A.1 aminoacylation ribozyme variant] | 0.768 | 1.08 | 1.02 | 0.926 | 0.775 | 0.713 |

| Sequence | self-aminoacylation [1] | self-aminoacylation [2] | self-aminoacylation [3] | self-aminoacylation [4] | self-aminoacylation [5] | self-aminoacylation [6] |
| --- | --- | --- | --- | --- | --- | --- |
| AUACUUCAAACAAUCGUUCUG [Fam1A.1 aminoacylation ribozyme variant] | 0.709 | 1.23 | 0.897 | 0.745 | 0.706 | 0.81 |
| CCACACUUCACGCAAUCGAUC [Fam1B.1 aminoacylation ribozyme variant] | 0.568 | 0.676 | 0.618 | 0.606 | 0.514 | 0.55 |
| CCACGCUUCAUGCAAUCGGUC [Fam1B.1 aminoacylation ribozyme variant] | 0.812 | 0.756 | 0.507 | 1.06 | 0.749 | 0.782 |
| CCACACUCCUAGCAAUCGGUC [Fam1B.1 aminoacylation ribozyme variant] | 0.943 | 0.91 | 0.519 | 1.04 | 0.746 | 0.631 |
| CUACUUCCAACAAUCGGGCUG [Fam1A.1 aminoacylation ribozyme variant] | 1.59 | 0.889 | 0.982 | 1.27 | 1.28 | 2.11 |
| AGUACCCUGGUCAUCCAGUGA [Fam2.1 aminoacylation ribozyme variant] | 3.06 | 34.7 | 6.9 | 2.86 | 5.87 | 5.15 |
| AAGUUUACUCAUAGUCGCAAG [Fam3.1 aminoacylation ribozyme variant] | 1.65 | 2.83 | 1.88 | 1.43 | 1.8 | 1.58 |
| CCACCCCUCAAGCAAUCGGUC [Fam1B.1 aminoacylation ribozyme variant] | 1.18 | 1.64 | 1.14 | 1.27 | 1.28 | 1.05 |
| AAGUUUGCUAUUAGUCGAAAG [Fam3.1 aminoacylation ribozyme variant] | 1.07 | 1.06 | 0.825 | 0.834 | 0.914 | 1.18 |
| CUACUUCAAACAAACGGUCGG [Fam1A.1 aminoacylation ribozyme variant] | 1.05 | 0.694 | 0.585 | 0.944 | 0.809 | 0.726 |
| GCACACUUCAAGCAAUCGGUG [Fam1B.1 aminoacylation ribozyme variant] | 6.23 | 49.1 | 10.1 | 5.92 | 10.3 | 8.09 |
| CUACUUCGACCAAUCGGUCUG [Fam1A.1 aminoacylation ribozyme variant] | 0.854 | 0.674 | 0.379 | 0.908 | 0.979 | 0.856 |
| ACACACUUCAAGCAAUCUGUC [Fam1B.1 aminoacylation ribozyme variant] | 0.759 | 1.39 | 0.683 | 1.02 | 0.58 | 0.567 |
| AAGUUUGCUAAUAGUCACAAG [Fam3.1 aminoacylation ribozyme variant] | 1.47 | 12.3 | 4.08 | 1.35 | 1.21 | 1.45 |
| AUUACCCUGGUUCUCGAGUGA [Fam2.1 aminoacylation ribozyme variant] | 1.78 | 8.08 | 3.34 | 2.2 | 3.1 | 2.08 |
| AUUCCCCUAGGUAAUCGGGUG [Fam2.2 aminoacylation ribozyme variant] | 7.5 | 90.8 | 11.6 | 6.58 | 16.3 | 10.7 |
| CUUCUUCAAAAAAUCGGUCUG [Fam1A.1 aminoacylation ribozyme variant] | 1 | 6.58 | 5.39 | 0.851 | 1.02 | 0.902 |
| AUUUACCUAGGCCAUCGGGUG [Fam2.2 aminoacylation ribozyme variant] | 2.47 | 17.4 | 3.98 | 3.2 | 3.95 | 3.07 |
| AUUACCCUUGUUAUCGAGUGA [Fam2.1 aminoacylation ribozyme variant] | 7.09 | 116 | 19.6 | 6.96 | 14.7 | 15.9 |
| AUUACCCGGUUCAUCGAGUGA [Fam2.1 aminoacylation ribozyme variant] | 3.67 | 16.5 | 7.78 | 4.41 | 6.51 | 6.36 |
| AAGUUUGCUGAUAGUCGCUAG [Fam3.1 aminoacylation ribozyme variant] | 1.14 | 1.86 | 1.11 | 1.26 | 1.08 | 1.31 |
